Assay results reported in the supplement of paper PMC10126150.
± gives the standard deviation of the averaged measurements.

Test system: ATP
Assay: switch fluorescence ratio, 500 uM ATP over buffer (Cy3 cluster intensity, sum of 5 cycles each) (fold (ratio)); higher = stronger signal-on switching upon ATP binding; sequences stand for … in TCGTCGGCAGCGTCAGATGTGTATAAGAGACAGTTTTTTTTTTTTTTTTTTTTTTTTT…TC
Conditions: aptamer strand: ATP DNA aptamer (quencher-CACCTGGGGGAGTATTGCGGAGGAAGG + anchor), 100 nM annealed; ATP concentration: 500 uM
In short: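 Imaging in selection buffer was followed by imaging after 15 min with 500 uM ATP at 22 °C, for Cy3-labelled switching-strand clusters annealed to 100 nM quencher-labelled ATP aptamer on a modified Illumina MiSeq flow-cell. Five of these buffer/ATP cycles ran, separated by NaOH stripping and re-annealing. The fluorescence ratio per cluster is summed target-cycle over summed buffer-cycle Cy3 intensity, averaged per switch-domain sequence; clusters outside 100-1000 RFU were removed.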
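Note: ATP exposure 15 min at 22 °C before imaging.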

| Sequence | switch fluorescence ratio |
| --- | --- |
| CGGCTAACAA | 1.02 ± 0.013 |
| CGGCTCAACT | 1.01 ± 0.022 |
| CGGCTGGGTA | 1.014 ± 0.0054 |
| CGGCTGTGCT | 1 ± 0.022 |
| CGGCTTAAGT | 1.01 ± 0.035 |
| CGGCTTACAC | 1.12 ± 0.017 |
| CGGCTTAGTA | 0.988 ± 0.062 |
| CGGCTTATTC | 1.04 ± 0.015 |
| CGGCTTGATA | 1.01 ± 0.033 |
| CGGCTTGGGG | 1 ± 0.015 |
| CGGCTTTTGG | 0.9617 ± 0.0084 |
| CGGGAAAGTC | 0.996 ± 0.027 |
| CGGGAAGAGC | 1.033 ± 0.0043 |
| CGGGAATCTC | 1.085 ± 0.0081 |
| CGGGAATTTC | 1.04 ± 0.027 |
| CGGGACATGA | 1.01 ± 0.012 |
| CGGGACCGGC | 1.04 ± 0.13 |
| CGGGACTCTT | 0.995 ± 0.017 |
| CGGGACTGCT | 0.9825 ± 0.0052 |
| CGGGAGAGTA | 1.54 ± 0.82 |
| CGGGAGCAGG | 1.09 ± 0.014 |
| CGGGAGGACT | 0.989 ± 0.057 |
| CGGGAGGTCG | 1.05 ± 0.082 |
| CGGGAGGTGT | 1.029 ± 0.0037 |
| CGGGAGTAGG | 1.04 ± 0.041 |

| Sequence | switch fluorescence ratio |
| --- | --- |
| CGGGAGTTAA | 1.01 ± 0.015 |
| CGGGAGTTGT | 0.99 ± 0.042 |
| CGGGATAGAT | 1 ± 0.039 |
| CGGGATATAA | 0.989 ± 0.022 |
| CGGGATATCG | 1.01 ± 0.029 |
| CGGGATGCGC | 1.04 ± 0.066 |
| CGGGATGTGC | 0.99328 ± 6e-06 |
| CGGGATTAGT | 0.99 ± 0.031 |
| CGGGATTATG | 1.01 ± 0.052 |
| CGGGATTTAA | 1.03 ± 0.054 |
| CGGGCAGCGG | 0.955 ± 0.06 |
| CGGGCCACGA | 1.04 ± 0.026 |
| CGGGCCCCGG | 1.74 ± 0.35 |
| CGGGCCTGAA | 0.999 ± 0.041 |
| CGGGCGAATA | 1 ± 0.017 |
| CGGGCGAGGG | 0.959 ± 0.011 |
| CGGGCGCTGG | 0.995 ± 0.018 |
| CGGGCGGCAG | 1.04 ± 0.027 |
| CGGGCGGGGC | 1.04 ± 0.028 |
| CGGGCGGGTA | 1.034 ± 0.0088 |
| CGGGCGGTCG | 0.975 ± 0.068 |
| CGGGCGTGCC | 0.966 ± 0.014 |
| CGGGCTAAGG | 0.986 ± 0.018 |
| CGGGCTGGCA | 1.004 ± 0.01 |
| CGGGCTGGGT | 0.987 ± 0.057 |

| Sequence | switch fluorescence ratio |
| --- | --- |
| CGGGCTTCGA | 0.993 ± 0.013 |
| CGGGGAAAAA | 1.06 ± 0.094 |
| CGGGGAAGCG | 1.01 ± 0.021 |
| CGGGGAATCA | 0.991 ± 0.038 |
| CGGGGAGAGC | 1.03 ± 0.039 |
| CGGGGAGAGG | 0.998 ± 0.036 |
| CGGGGAGCGT | 1 ± 0.034 |
| CGGGGAGCTG | 1.02 ± 0.036 |
| CGGGGAGGGG | 0.985 ± 0.028 |
| CGGGGAGTAA | 1.01 ± 0.012 |
| CGGGGAGTTT | 0.978 ± 0.05 |
| CGGGGATATT | 1.11 ± 0.23 |
| CGGGGATGAA | 1.01 ± 0.063 |
| CGGGGCAAAT | 1.04 ± 0.028 |
| CGGGGCACGT | 1.16 ± 0.23 |
| CGGGGCAGCT | 1.1 ± 0.11 |
| CGGGGCATTG | 1.013 ± 0.0046 |
| CGGGGCGAGG | 1 ± 0.017 |
| CGGGGCTTTG | 0.982 ± 0.025 |
| CGGGGGAACG | 1.01 ± 0.048 |
| CGGGGGAAGG | 0.979 ± 0.026 |
| CGGGGGAGGC | 0.96 ± 0.018 |
| CGGGGGAGTC | 1.02 ± 0.027 |
| CGGGGGATCA | 1.01 ± 0.049 |
| CGGGGGATTT | 1.01 ± 0.014 |

| Sequence | switch fluorescence ratio |
| --- | --- |
| CGGGGGCACC | 1.07 ± 0.057 |
| CGGGGGCGGA | 1.04 ± 0.052 |
| CGGGGGCTCG | 0.989 ± 0.069 |
| CGGGGGCTGT | 0.964 ± 0.0037 |
| CGGGGGGAGG | 1.01 ± 0.035 |
| CGGGGGGATA | 1.07 ± 0.15 |
| CGGGGGGCCC | 0.97 ± 0.024 |
| CGGGGGGCCG | 0.995 ± 0.01 |
| CGGGGGGGC | 1.001 ± 0.01 |
| CGGGGGGGTG | 1.03 ± 0.096 |
| CGGGGGGTGT | 1.01 ± 0.023 |
| CGGGGGGTTG | 0.984 ± 0.033 |
| CGGGGGTAAG | 0.991 ± 0.027 |
| CGGGGGTCCT | 0.986 ± 0.015 |
| CGGGGGTGGC | 0.984 ± 0.029 |
| CGGGGGTGTC | 0.998 ± 0.026 |
| CGGGGGTTCG | 1.05 ± 0.057 |
| CGGGGGTTGT | 0.963 ± 0.036 |
| CGGGGTAAGT | 1.01 ± 0.021 |
| CGGGGTAATG | 0.979 ± 0.012 |
| CGGGGTACGT | 0.985 ± 0.027 |
| CGGGGTAGCG | 0.965 ± 0.013 |
| CGGGGTATAG | 1.37 ± 0.52 |
| CGGGGTCGCC | 0.984 ± 0.021 |
| CGGGGTGAAT | 1.022 ± 0.0052 |
